Consider one molecule from paper PMC12534491.

The series deals with T1, Tat peptide (arginine-rich motif) (HIV-1, UniProt P04608).
T1 chain: RKKRRQRRRPPQG
Nature of the series: in-cell NMR.

On to GGGAGCUUGAUCCCGGAAACGGUCGAUCGCUCCC (structured_RNA) [anti-Tat RNA aptamer], for which the binding result is recorded as “binds”.
